In assay [1] the target is T1, human IGFBP-1 (human, UniProt P08833 26-259).
T1 construct: mature; Secreted recombinant protein; also called IGFBP-I
T1 sequence (looked up): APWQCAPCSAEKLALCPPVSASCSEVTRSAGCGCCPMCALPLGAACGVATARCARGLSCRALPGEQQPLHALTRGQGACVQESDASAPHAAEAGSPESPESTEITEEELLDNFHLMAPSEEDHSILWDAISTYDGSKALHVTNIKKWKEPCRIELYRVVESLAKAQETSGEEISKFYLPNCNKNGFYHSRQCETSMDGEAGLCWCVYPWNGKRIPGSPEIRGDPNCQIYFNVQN
As to the kind of experiment: competitive phage ELISA; IC50mut/IC50 G1S-A70V. For orientation: ELISA stands for enzyme-linked immunosorbent assay.

Assay [2] concerns the target T2, recombinant human IGFBP-3 (human, UniProt P17936 28-291).
T2 construct: mature; Secreted recombinant protein
As to the kind of experiment: competitive phage ELISA; IC50mut/IC50 G1S-A70V.

The target of assay [3] is T1, human IGFBP-1. As to the kind of experiment: competitive phage ELISA. How it is done: (§1) Phage particles were harvested and resuspended in PBS buffer as described in Lowman, H. B., "Phage Display of Peptide Libraries on Protein Scaffolds," in Cabilly, S. (ed.), *Combinatorial Peptide Library Protocols* (Humana Press Inc.: Totowa, N.J., 1998), pp. 249–264. Then phage concentrations were normalized to yield a maximal ELISA signal of 0.2–0.4 for each mutant (Lowman, in Cabilly, S. (ed.), supra). Threefold serial dilutions of soluble competitor were prepared on non-absorbent microtiter plates (Nunc, F, 96 wells) with binding buffer (0.5% TWEEN™ 20/PBS) containing phage at the previously-determined concentrations. The dilution range of competitor protein extended over six orders of magnitude, starting at 5 µM for IGFBP-1 and 500 nM for IGFBP-3. After blocking, the plates containing immobilized target were washed with 0.05% TWEEN™/PBS buffer and subsequently incubated with 80 µl/well of the premixed phage-competitor solutions for 1 hour at room temperature. […] Numbers in Table I represent mean±standard deviation of individually assessed $IC50$ values.
(§2) At least two different clones of every mutant were tested.

The target in assay [4] is T1, human IGFBP-1. Kind of assay: phage ELISA value repeated from Table I; IC50mut/IC50 G1S-A70V.
The target of assay [5] is T2, recombinant human IGFBP-3. Described as above.
Assay [6] concerns the target T3, human IGFBP-1 (human), P08833.
T3 chain: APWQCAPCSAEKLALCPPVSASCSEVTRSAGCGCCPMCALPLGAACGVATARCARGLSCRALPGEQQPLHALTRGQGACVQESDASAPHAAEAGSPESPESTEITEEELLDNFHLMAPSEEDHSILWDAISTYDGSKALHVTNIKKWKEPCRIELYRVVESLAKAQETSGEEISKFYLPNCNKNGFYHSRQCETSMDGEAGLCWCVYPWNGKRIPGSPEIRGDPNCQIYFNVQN
The description is as above. The note with it: remark: other sources report otherwise.

The target is the same in assay [7]. As to the kind of experiment: competitive phage ELISA; IC50mut/IC50 G1S-A70V. Particulars: remark: other sources report otherwise.
Assay [8] concerns the target T2, recombinant human IGFBP-3. Kind of assay: competitive phage ELISA, IGFBP-3-coated wells, soluble IGFBP-3 competitor (FIG. 3B). How it is done: Phage particles were harvested and resuspended in PBS buffer as described in Lowman, H. B., "Phage Display of Peptide Libraries on Protein Scaffolds," in Cabilly, S. (ed.), *Combinatorial Peptide Library Protocols* (Humana Press Inc.: Totowa, N.J., 1998), pp. 249–264. Then phage concentrations were normalized to yield a maximal ELISA signal of 0.2–0.4 for each mutant (Lowman, in Cabilly, S. (ed.), supra). Threefold serial dilutions of soluble competitor were prepared on non-absorbent microtiter plates (Nunc, F, 96 wells) with binding buffer (0.5% TWEEN™ 20/PBS) containing phage at the previously-determined concentrations. The dilution range of competitor protein extended over six orders of magnitude, starting at 5 µM for IGFBP-1 and 500 nM for IGFBP-3.

Assay [9] addresses T2, recombinant human IGFBP-3. As to the kind of experiment: competitive phage ELISA. How it is done: as §1, §2

T2 sequence (P17936 28-291): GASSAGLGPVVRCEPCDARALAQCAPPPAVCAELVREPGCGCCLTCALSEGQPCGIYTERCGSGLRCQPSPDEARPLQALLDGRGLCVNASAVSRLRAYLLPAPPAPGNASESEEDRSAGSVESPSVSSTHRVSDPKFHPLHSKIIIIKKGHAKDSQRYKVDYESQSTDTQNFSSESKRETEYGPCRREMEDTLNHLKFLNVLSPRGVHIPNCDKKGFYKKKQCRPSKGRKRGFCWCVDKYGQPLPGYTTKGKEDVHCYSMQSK

For “IGF-I Y31A displayed on phage (from UniProt P69168 267-424) (ligand)”, the relative IC50 in [1] came to 0.8; in [2] it was 1.

On to “IGF-I S34A displayed on phage (from UniProt P69168 267-424) (ligand)”, for which the relative IC50 in [1] was found to be 1.2; in assay [2], 2.2.

For “IGF-I T29A displayed on phage (from UniProt P69168 267-424) (ligand)”, the relative IC50 in assay [1] stood at 0.9; in [2], 1.6.

“IGF-I G7A displayed on phage (from UniProt P69168 267-424) (ligand)”: the relative IC50 is over 100 in assay [1] and 6.1 in assay [2].

As usually defined, the IC50 is the concentration needed to halve the response being measured. For “Ala(1-3)-IGF-I displayed on phage (from UniProt P69168 267-424) (ligand)”, the 50% inhibitory concentration (IC50) in assay [3] was 90.4 nM. Also, the figures for the relative IC50 in assay [1] and in assay [2] were 11 and 1.5, respectively.

Turning to “IGF-I G30A displayed on phage (from UniProt P69168 267-424) (ligand)”, the relative IC50 in [1] amounted to 0.9; in assay [2] it was 0.8.

Consider “IGF-I G1S-A70V displayed on phage (from UniProt P69168 267-424) (ligand)”, for which the relative IC50 in assay [1], in assay [2], in assay [4] and in assay [5] was 1 each time.

For the molecule “IGF-I P28A displayed on phage (from UniProt P69168 267-424) (ligand)”, the results for the relative IC50 in assay [1] and in [2] were 1.1 and 1.9, respectively.

As for “IGF-I G32A displayed on phage (from UniProt P69168 267-424) (ligand)”, the figures for the relative IC50 in [1] and in assay [2] were 1.3 and 1, respectively.

“IGF-I S33A displayed on phage (from UniProt P69168 267-424) (ligand)”: the results for the relative IC50 in assay [1] and in assay [2] were 1.1 and 1.3, respectively.

B1: IGF-I F49A displayed on phage (ligand)
chain: SPETLCGAELVDALQFVCGDRGFYFNKPTGYGSSSRRAPQTGIVDECCARSCDLRRLEMYCAPLKPAKSV
notes: On phage; G1S-A70V template; also called IGF-F49A phage; not shown: Display partner: M13 gene III protein fragment (residues 249-406, mature count) and the junction to it
Regarding B1, the relative IC50 in assay [6] and in assay [7] was over 100 throughout. The “ratio of IC50 against G1S-A70V phage” value in assay [8] is under 4 fold.

B2: IGF-I Y60A displayed on phage (ligand)
chain: SPETLCGAELVDALQFVCGDRGFYFNKPTGYGSSSRRAPQTGIVDECCFRSCDLRRLEMACAPLKPAKSV
notes: On phage; G1S-A70V template; not shown: M13 gene III protein fragment (residues 249-406), the phage display carrier, and its junction to IGF-I
For the molecule B2, the half-inhibitory concentration (IC50) in [3] is 6.6 nM; in [9], 0.52 nM.

B3: IGF-I V17A displayed on phage (ligand)
chain: SPETLCGAELVDALQFACGDRGFYFNKPTGYGSSSRRAPQTGIVDECCFRSCDLRRLEMYCAPLKPAKSV
notes: On phage; G1S-A70V template; not shown: M13 gene III fragment (residues 249-406), the display carrier, and its junction
In the case of B3, the IC50 was 42.9 nM in assay [3] and 3.67 nM in [9].

B4: IGF-I Y24A displayed on phage (ligand)
chain: SPETLCGAELVDALQFVCGDRGFAFNKPTGYGSSSRRAPQTGIVDECCFRSCDLRRLEMYCAPLKPAKSV
notes: On phage; G1S-A70V template; not shown: Display carrier: M13 gene III protein fragment (residues 249-406) and the junction to it
For the molecule B4, the IC50 stood at 13.3 nM in assay [3] and 2.53 nM in assay [9].
